# B1: Cross308×Trop2 (bispecific antibody)
# scFv: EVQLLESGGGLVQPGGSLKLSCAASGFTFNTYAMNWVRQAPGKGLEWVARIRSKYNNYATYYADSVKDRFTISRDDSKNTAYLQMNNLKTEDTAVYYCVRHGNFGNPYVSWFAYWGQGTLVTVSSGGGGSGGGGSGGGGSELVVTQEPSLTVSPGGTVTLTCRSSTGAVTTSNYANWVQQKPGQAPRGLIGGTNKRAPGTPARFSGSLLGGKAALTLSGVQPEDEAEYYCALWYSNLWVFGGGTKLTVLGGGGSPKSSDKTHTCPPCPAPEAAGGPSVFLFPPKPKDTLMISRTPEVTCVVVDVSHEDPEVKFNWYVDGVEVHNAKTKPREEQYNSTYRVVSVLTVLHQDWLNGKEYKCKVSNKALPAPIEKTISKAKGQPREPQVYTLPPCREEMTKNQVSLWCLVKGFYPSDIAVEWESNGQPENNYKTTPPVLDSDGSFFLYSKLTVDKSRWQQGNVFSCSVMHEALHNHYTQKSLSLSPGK
# heavy: QVQLQQSGSELKKPGASVKVSCKASGYTFTNYGMNWVKQAPGQGLKWMGWINTYTGEPTYTDDFKGRFAFSLDTSVSTAYLQISSLKADDTAVYFCARGGFGSSYWYFDVWGQGSLVTVSSASTKGPSVFPLAPSSKSTSGGTAALGCLVKDYFPEPVTVSWNSGALTSGVHTFPAVLQSSGLYSLSSVVTVPSSSLGTQTYICNVNHKPSNTKVDKKVEPKSSDKTHTCPPCPAPEAAGGPSVFLFPPKPKDTLMISRTPEVTCVVVDVSHEDPEVKFNWYVDGVEVHNAKTKPREEQYNSTYRVVSVLTVLHQDWLNGKEYKCKVSNKALPAPIEKTISKAKGQPREPQVCTLPPSREEMTKNQVSLSCAVKGFYPSDIAVEWESNGQPENNYKTTPPVLDSDGSFFLVSKLTVDKSRWQQGNVFSCSVMHEALHNHYTQKSLSLSPGK
# light: DIQLTQSPSSLSASVGDRVSITCKASQDVSIAVAWYQQKPGKAPKLLIYSASYRYTGVPDRFSGSGSGTDFTLTISSLQPEDFAVYYCQQHYITPLTFGAGTKVEIKRTVAAPSVFIFPPSDEQLKSGTASVVCLLNNFYPREAKVQWKVDNALQSGNSQESVTEQDSKDSTYSLSSTLTLSKADYEKHKVYACEVTHQGLSSPVTKSFNRGEC
# B2: Cross318×Trop2 (bispecific antibody)
# scFv: not shown
# heavy: B1 heavy
# light: B1 light
# B3: Cross312×Trop2 (bispecific antibody)
# scFv: not shown
# heavy: B1 heavy
# light: B1 light
# B4: Cross316×Trop2 (bispecific antibody)
# scFv: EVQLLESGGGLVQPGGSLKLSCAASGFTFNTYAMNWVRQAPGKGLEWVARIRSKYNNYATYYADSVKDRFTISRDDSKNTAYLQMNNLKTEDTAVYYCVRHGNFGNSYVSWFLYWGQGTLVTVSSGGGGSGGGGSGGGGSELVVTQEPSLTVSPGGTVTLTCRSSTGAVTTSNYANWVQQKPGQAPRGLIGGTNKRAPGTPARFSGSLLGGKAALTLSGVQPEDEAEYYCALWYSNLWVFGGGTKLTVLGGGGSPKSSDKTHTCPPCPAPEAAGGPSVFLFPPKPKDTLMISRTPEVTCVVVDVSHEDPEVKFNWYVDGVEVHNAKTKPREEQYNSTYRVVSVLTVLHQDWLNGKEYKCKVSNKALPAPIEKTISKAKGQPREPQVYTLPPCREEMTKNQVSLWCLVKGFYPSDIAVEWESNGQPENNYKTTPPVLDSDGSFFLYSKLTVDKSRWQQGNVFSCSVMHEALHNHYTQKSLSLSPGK
# heavy: B1 heavy
# light: B1 light
# B5: Cross309×Trop2 (bispecific antibody)
# scFv: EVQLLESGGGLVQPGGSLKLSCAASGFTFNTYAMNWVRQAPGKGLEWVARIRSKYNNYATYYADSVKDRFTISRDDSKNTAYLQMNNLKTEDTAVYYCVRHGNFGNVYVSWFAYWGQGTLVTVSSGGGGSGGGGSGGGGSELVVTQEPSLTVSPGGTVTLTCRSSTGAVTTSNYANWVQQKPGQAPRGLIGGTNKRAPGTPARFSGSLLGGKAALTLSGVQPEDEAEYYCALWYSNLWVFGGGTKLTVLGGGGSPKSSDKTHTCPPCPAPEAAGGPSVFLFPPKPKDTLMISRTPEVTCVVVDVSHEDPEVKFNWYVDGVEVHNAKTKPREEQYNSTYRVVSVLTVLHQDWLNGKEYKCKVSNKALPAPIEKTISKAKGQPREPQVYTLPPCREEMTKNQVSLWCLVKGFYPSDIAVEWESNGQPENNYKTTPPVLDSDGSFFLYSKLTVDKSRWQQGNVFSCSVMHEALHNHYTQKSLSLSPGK
# heavy: B1 heavy
# light: B1 light
# B6: Cross325×Trop2 (bispecific antibody)
# scFv: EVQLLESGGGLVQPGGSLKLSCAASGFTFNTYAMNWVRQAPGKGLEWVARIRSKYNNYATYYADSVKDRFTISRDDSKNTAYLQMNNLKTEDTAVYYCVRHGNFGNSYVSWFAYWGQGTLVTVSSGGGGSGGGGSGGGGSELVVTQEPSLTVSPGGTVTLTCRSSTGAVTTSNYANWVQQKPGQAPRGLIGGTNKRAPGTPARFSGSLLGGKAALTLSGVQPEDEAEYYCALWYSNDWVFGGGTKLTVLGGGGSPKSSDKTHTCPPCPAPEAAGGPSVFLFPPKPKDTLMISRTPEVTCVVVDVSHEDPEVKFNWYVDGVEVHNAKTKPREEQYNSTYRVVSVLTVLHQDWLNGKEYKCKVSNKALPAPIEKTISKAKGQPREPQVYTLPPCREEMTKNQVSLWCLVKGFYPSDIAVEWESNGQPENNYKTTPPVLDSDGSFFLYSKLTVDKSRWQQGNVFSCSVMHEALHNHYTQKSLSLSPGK
# heavy: B1 heavy
# light: B1 light
# B7: Cross313×Trop2 (bispecific antibody)
# scFv: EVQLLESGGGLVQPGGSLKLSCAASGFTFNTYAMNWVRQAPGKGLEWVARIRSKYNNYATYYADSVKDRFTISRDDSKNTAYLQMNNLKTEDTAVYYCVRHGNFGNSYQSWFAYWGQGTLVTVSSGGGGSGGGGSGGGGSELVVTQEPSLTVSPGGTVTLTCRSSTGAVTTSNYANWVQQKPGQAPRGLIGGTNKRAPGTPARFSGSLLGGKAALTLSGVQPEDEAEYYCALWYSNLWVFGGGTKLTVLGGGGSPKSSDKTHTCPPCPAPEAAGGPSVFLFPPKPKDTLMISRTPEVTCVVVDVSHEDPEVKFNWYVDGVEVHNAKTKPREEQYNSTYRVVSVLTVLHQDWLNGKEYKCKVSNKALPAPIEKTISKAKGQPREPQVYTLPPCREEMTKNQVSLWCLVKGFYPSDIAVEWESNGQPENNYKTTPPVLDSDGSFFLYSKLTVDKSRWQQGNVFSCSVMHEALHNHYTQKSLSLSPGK
# heavy: B1 heavy
# light: B1 light
# B8: Cross310×Trop2 (bispecific antibody)
# scFv: not shown
# heavy: B1 heavy
# light: B1 light
# B9: Cross326×Trop2 (bispecific antibody)
# scFv: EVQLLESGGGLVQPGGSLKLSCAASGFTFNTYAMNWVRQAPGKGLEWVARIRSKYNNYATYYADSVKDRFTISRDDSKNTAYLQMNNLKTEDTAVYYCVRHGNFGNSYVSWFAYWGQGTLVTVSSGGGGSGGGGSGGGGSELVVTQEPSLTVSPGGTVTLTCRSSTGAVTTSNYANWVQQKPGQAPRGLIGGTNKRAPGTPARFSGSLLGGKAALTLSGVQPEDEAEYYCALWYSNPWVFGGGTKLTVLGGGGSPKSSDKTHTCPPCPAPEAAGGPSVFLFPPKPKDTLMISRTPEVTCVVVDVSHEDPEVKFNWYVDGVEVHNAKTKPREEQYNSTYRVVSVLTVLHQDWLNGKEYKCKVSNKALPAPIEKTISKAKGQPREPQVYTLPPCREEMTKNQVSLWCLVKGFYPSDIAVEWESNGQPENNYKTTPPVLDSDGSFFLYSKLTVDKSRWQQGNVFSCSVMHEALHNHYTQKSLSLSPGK
# heavy: B1 heavy
# light: B1 light
# B10: Cross323×Trop2 (bispecific antibody)
# scFv: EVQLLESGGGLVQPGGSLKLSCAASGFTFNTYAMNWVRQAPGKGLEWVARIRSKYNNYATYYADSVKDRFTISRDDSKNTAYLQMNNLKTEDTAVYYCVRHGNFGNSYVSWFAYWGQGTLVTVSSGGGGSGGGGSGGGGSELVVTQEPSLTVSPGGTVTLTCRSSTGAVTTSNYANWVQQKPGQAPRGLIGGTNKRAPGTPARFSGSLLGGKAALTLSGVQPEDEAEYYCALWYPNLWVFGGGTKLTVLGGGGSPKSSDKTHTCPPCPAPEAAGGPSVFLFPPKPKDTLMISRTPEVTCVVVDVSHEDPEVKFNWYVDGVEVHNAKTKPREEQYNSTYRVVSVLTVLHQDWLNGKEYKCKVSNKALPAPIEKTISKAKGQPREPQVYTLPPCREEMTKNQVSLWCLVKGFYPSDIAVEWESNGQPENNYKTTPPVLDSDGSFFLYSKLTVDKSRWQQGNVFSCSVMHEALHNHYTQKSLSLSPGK
# heavy: B1 heavy
# light: B1 light
# B11: Cross314×Trop2 (bispecific antibody)
# scFv: not shown
# heavy: B1 heavy
# light: B1 light
# B12: Cross303×PDL1 (bispecific antibody, human IgG1, kappa, L234A L235A)
# scFv: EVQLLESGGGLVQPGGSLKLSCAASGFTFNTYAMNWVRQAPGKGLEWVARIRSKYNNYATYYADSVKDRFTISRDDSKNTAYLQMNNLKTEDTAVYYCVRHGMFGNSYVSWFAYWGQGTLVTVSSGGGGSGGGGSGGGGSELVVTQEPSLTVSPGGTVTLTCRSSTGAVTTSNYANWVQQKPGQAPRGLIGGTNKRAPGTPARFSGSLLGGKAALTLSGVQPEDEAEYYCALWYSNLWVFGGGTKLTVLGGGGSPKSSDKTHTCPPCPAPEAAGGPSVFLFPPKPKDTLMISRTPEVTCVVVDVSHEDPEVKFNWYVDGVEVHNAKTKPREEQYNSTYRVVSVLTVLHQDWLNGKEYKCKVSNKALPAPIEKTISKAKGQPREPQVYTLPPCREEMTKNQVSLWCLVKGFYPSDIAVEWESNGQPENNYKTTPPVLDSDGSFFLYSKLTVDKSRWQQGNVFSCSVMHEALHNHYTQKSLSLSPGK
# heavy: QVQLVQSGAEVKKPGASVKVSCKASGYSFTGYYMHWVRQAPGQGLEWIGRINPYNGATTYSQNFKDRATMTVDTSISTAYMELSRLRSDDTAVYYCVPTGMGYFLMDYWGQGTLVTVSSASTKGPSVFPLAPSSKSTSGGTAALGCLVKDYFPEPVTVSWNSGALTSGVHTFPAVLQSSGLYSLSSVVTVPSSSLGTQTYICNVNHKPSNTKVDKKVEPKSCDKTHTCPPCPAPEAAGGPSVFLFPPKPKDTLMISRTPEVTCVVVDVSHEDPEVKFNWYVDGVEVHNAKTKPREEQYNSTYRVVSVLTVLHQDWLNGKEYKCKVSNKALPAPIEKTISKAKGQPREPQVCTLPPSREEMTKNQVSLSCAVKGFYPSDIAVEWESNGQPENNYKTTPPVLDSDGSFFLVSKLTVDKSRWQQGNVFSCSVMHEALHNHYTQKSLSLSPGK
# light: DIQLTQSPSFLSASVGDRVTITCKASQDVGSAVVWYQQKPGKAPKLLIYWASTRHTGVPSRFSGSGSGTEFTLTISSLQPEDFATYFCQQFTSYPTFGQGTKLEIKRTVAAPSVFIFPPSDEQLKSGTASVVCLLNNFYPREAKVQWKVDNALQSGNSQESVTEQDSKDSTYSLSSTLTLSKADYEKHKVYACEVTHQGLSSPVTKSFNRGEC
# B13: Cross307×PDL1 (bispecific antibody, human IgG1, kappa, L234A L235A)
# scFv: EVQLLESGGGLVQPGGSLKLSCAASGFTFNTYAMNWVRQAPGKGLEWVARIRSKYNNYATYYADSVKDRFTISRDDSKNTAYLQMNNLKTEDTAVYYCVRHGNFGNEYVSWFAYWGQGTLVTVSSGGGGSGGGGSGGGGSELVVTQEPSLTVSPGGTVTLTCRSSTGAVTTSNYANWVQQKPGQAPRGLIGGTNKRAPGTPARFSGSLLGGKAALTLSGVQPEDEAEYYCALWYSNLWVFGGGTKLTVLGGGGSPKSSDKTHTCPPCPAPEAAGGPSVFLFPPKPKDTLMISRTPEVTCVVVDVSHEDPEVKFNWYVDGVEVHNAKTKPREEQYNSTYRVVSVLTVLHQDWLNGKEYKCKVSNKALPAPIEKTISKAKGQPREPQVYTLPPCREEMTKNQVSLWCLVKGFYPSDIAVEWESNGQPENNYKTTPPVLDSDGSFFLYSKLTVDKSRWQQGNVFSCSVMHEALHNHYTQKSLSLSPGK
# heavy: B12 heavy
# light: B12 light
# Target: T1, Trop2 protein (UniProt P09758 27-274)
# T1 construct: Bought recombinant protein; also called Trop2-Biotin protein (biotin-labelled, bridging ELISA)
# T1 sequence (looked up): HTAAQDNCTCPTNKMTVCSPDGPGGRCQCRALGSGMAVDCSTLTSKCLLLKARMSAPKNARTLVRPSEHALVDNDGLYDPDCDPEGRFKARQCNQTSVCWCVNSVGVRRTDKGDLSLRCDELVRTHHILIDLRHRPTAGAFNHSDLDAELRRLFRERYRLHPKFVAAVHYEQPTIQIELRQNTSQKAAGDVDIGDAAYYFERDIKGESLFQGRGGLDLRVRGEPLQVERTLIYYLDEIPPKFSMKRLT
# Test: ELISA, coated Trop2 protein, OD450
# Text: In this example, the binding properties of the CD3×Trop2 and CD3×PDL1 bispecific antibody (the production method and the amino acid sequences of the heavy and light chains were shown in Example 1) were detected by using ELISA. The CD3E&D, Trop2, or PDL1 protein was coated onto 96-well plates by inventors, and the strength of the signal after the addition of the antibody was used to determine the binding properties of the antibody and the corresponding protein.
# (2) Trop2 protein (purchased from Acro) was diluted to 2 μg/ml with PBS buffer, added to a 96-well plate at a volume of 100 μL/well, and placed at 4° C. overnight. The PBS buffer in the 96-well plate was aspirated, and the plate was washed 6 times with PBST (pH 7.2 PBS containing 0.1% Tween 20) buffer. Then, 200 μL/well PBS/10% BSA was added and incubated at 37° C. for 2 h for blocking. The blocking solution was removed, and the plate was washed six times with PBST. Then, the to-be-tested bispecific antibodies, Cross3×Trop2, Cross303×Trop2, Cross307×Trop2, Cross308×Trop2, Cross309×Trop2, Cross310×Trop2, Cross311×Trop2, Cross312×Trop2, Cross313×Trop2, Cross314×Trop2, Cross316×Trop2, Cross317×Trop2, Cross318×Trop2, Cross323×Trop2, Cross325×Trop2, Cross326×Trop2, and control IgG1LALA (purchased from Bio-Tech), serially diluted with PBST/0.05% BSA, were added at 100 μL/well and incubated at 37° C. for 1 h. The reaction system was removed, and the plate was washed 6 times with PBST. Then, HRP (horseradish peroxidase)-labeled anti-human secondary antibody (Fab specific) (purchased from Sigma) diluted with PBST/0.05% BSA at 100 μL/well. After the plate was washed six times with PBST, TMB (tetramethylbenzidine) was added at 80 μL/well, and incubated at room temperature for 3 min. 4 M sulfuric acid was added at 80 μL/well to terminate the reaction. The absorbance was read at 450 nm using a microplate reader.
row,Binder,EC50 (read off the curve) [µg/mL]
1,B1,~0.008
2,B2,~0.02
3,B3,~0.008
4,B4,~0.008
5,B5,~0.008
6,B6,~0.008
7,B7,~0.008
8,B8,~0.008
9,B9,~0.008
10,B10,~0.008
11,B11,~0.008

# Target: T2, PDL1 on A-375 melanoma cells, HCT-15 colorectal cancer cells and A549 lung cancer cells (UniProt Q9NZQ7 19-290, limits assumed)
# T2 construct: whole, on cells
# T2 sequence (Q9NZQ7 19-290 limits assumed): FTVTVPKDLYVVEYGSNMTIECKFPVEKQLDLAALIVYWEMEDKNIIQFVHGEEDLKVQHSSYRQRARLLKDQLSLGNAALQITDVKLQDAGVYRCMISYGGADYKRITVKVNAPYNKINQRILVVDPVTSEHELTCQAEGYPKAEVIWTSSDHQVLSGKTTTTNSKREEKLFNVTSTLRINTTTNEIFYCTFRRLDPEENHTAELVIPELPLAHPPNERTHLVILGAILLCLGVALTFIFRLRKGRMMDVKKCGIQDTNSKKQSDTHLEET
# Test: flow cytometry, A549 cells, MFI [panel B]
# Protocol: (§1) (2) The tumor cells were diluted to 2×10⁶/ml with PBS and added to a 1.5 ml EP tube at a volume of 100 μl/tube, and goat serum was added thereto at 10 μl/tube. The cells were blocked at 4° C. for 30 min. The serially diluted bispecific antibodies, Cross3×Trop2, Cross303×Trop2, Cross307×Trop2, Cross308×Trop2, Cross309×Trop2, Cross310×Trop2, Cross311×Trop2, Cross312×Trop2, Cross313×Trop2, Cross314×Trop2, Cross316×Trop2, Cross317×Trop2, Cross318×Trop2, Cross323×Trop2, Cross325×Trop2, Cross326×Trop2, and Cross3×PDL1, Cross303×PDL1, Cross307×PDL1, Cross308×PDL1, Cross309×PDL1, Cross310×PDL1, Cross311×PDL1, Cross312×PDL1, Cross313×PDL1, Cross314×PDL1, Cross316×PDL1, Cross317×PDL1, Cross318×PDL1, Cross323×PDL1, Cross325×PDL1, Cross326×PDL1, and control hIgG1LALA (purchased from Bio-Tech) were added and incubated at 4° C. for 30 min. 1 ml of PBS was added to the EP tube, followed by centrifugation at 3500 rpm for 5 min at 4° C. The supernatant was discarded, and the cells were washed again with PBS. After centrifugation, the supernatant was completely discarded, and the cells were resuspended with PBS at 100 μl/tube. Alexa-647-labeled goat anti-human IgG secondary antibody (purchased from Jackson lab) was added at 1 μl/tube and incubated at 4° C. in the dark for 30 min. The cells were washed twice with PBS, and the supernatant was completely discarded after centrifugation. The cells were resuspended with PBS at 200 μl/tube and assay was performed using the flow cytometry.
row,Binder,EC50 (read off the curve) [µg/mL]
1,B12,~1
2,B13,~1

# Target: T3, PDL1 protein (UniProt Q9NZQ7 19-238)
# T3 construct: Bought recombinant protein
# T3 sequence (Q9NZQ7 19-238 limits assumed): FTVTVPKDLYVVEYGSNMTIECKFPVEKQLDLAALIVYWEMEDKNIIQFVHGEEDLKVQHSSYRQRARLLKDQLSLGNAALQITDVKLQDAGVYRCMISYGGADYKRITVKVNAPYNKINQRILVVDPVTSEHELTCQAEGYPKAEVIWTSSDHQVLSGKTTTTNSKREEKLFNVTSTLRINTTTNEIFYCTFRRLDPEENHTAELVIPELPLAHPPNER
# Test: ELISA, coated PDL1 protein, OD450 [panel A]
# Protocol: (3) PDL1 protein (purchased from Acro) was diluted to 2 μg/ml with PBS buffer, added to a 96-well plate at a volume of 100 μL/well, and placed at 4° C. overnight. The PBS buffer in the 96-well plate was aspirated, and the plate was washed 6 times with PBST (pH 7.2 PBS containing 0.10% Tween 20) buffer. Then, PBS/10% BSA was added at 200 μL/well and incubated at 37° C. for 2 h for blocking. The blocking solution was removed, and the plate was washed six times with PBST. Then, the to-be-tested bispecific antibodies serially diluted with PBST/0.05% BSA, Cross3×PDL1, Cross303×PDL1, Cross307×PDL1, Cross308×PDL1, Cross309×PDL1, Cross310×PDL1, Cross311×PDL1, Cross312×PDL1, Cross313×PDL1, Cross314×PDL1, Cross316×PDL1, Cross317×PDL1, Cross318×PDL1, Cross323×PDL1, Cross325×PDL1, Cross326×PDL1, and control IgG1LALA (purchased from Bio-Tech) were added at 100 μL/well, and incubated at 37° C. for 1 h. The reaction system was removed, and the plate was washed 6 times with PBST. Then, the cells were incubated at 37° C. for 1 h with HRP (horseradish peroxidase)-labeled anti-human secondary antibody (Fab specific) (purchased from Sigma) serially diluted with PBST/0.05% BSA at 100 μL/well. After the plate was washed six times with PBST, TMB (tetramethylbenzidine) was added at 80 μL/well and incubated at room temperature for 3 min. 4 M sulfuric acid was added at 80 μL/well to terminate the reaction. The absorbance was read at 450 nm using a microplate reader.
row,Binder,EC50 (read off the curve) [µg/mL]
1,B12,~0.2
2,B13,~0.2

# Target: T4, Trop2 on A-375-Trop2 melanoma cells (UniProt P09758 27-323, limits assumed)
# T4 construct: whole, on cells
# T4 sequence (looked up): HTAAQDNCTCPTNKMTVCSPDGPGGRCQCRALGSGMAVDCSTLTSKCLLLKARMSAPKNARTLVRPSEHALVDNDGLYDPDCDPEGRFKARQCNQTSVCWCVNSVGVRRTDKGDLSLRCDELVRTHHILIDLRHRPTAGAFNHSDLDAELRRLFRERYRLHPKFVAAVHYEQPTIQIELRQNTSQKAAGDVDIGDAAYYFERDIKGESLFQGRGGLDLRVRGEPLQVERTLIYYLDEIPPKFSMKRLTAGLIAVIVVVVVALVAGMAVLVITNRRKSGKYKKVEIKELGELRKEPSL
# Test: flow cytometry, A-375-Trop2 cells, MFI [panel B]
# Protocol: as §1
row,Binder,EC50 (read off the curve) [µg/mL]
1,B1,~1
2,B2,~1
3,B3,~1
4,B4,~1
5,B5,~1
6,B6,~1
7,B7,~1
8,B8,~1
9,B9,~1
10,B10,~1
11,B11,~1

# Reference: US20260125472A1 (HEFEI TG IMMUNOPHARMA, published 2026)
